B1: Ac-Asp-Trp-5Clw-Hyp-Hse-leu-[Cys(2Lut)-Thp-Leu-Ile-Cys]-NH2 (peptide)
peptide: Ac-DW[Trp(5-Cl)][Hyp][hSer][dL]C[Thp]LIC-NH2
modifications: linker 7-11 via Pyridine(2,6-diCH2)
SMILES: CC[C@H](C)[C@@H]1NC(=O)[C@H](CC(C)C)NC(=O)C2(CCOCC2)NC(=O)[C@@H](NC(=O)[C@@H](CC(C)C)NC(=O)[C@H](CCO)NC(=O)[C@@H]2C[C@@H](O)CN2C(=O)[C@H](Cc2c[nH]c3ccc(Cl)cc23)NC(=O)[C@H](Cc2c[nH]c3ccccc23)NC(=O)[C@H](CC(=O)O)NC(C)=O)CSCc2cccc(n2)CSC[C@@H](C(N)=O)NC1=O
B2: HO-Succinyl-Trp-5Clw-Hyp-Glu-leu-[Cys(2Lut)-Thp-Leu-Ile-Cys]-APAc-glu(AGLU)-Lys(DOTA)-NH2 (peptide)
peptide: Suc-W[Trp(5-Cl)][Hyp]E[dL]C[Thp]LIC-{APAc-dGlu(AGLU)-Lys(DOTA)-NH2}
modifications: linker 6-10 via 2Lut; reading uncertain; also: printed as HO-Succinyl-Trp-5Clw-Hyp-Glu-leu-[Cys(2Lut)-Thp-Leu-Ile-Cys]-APAc-glu(AGLU)-Lys(DOTA)-NH2
B3: DOTA-Ttds-Asp-Trp-5Clw-Pro-Glu-leu-[Cys(2Lut)-Apc-Leu-Ile-AET] (peptide)
peptide: {DOTA-Ttds″}-DW[Trp(5-Cl)]PE[dL]C[Api]LI-Cysteamide
modifications: not fully specified (bridges); printed as DOTA-Ttds-Asp-Trp-5Clw-Pro-Glu-leu-[Cys(2Lut)-Apc-Leu-Ile-AET]
B4: Ac-Cya-Trp-5Clw-Hyp-Glu-leu-[Cys(2Lut)-Aib-Leu-Ile-AET] (peptide)
peptide: Ac-[Cya]W[Trp(5-Cl)][Hyp]E[dL]C[Aib]LI[Cysteamide]
modifications: linker (positions not given here) via Pyridine(2,6-diCH2); not fully specified (bridges); printed as Ac-Cya-Trp-5Clw-Hyp-Glu-leu-[Cys(2Lut)-Aib-Leu-Ile-AET]

*1 amine or outer side, *2 acyl side, *3 side chain or, on linkers, in order; H or OH if unused. Bridges are numbered along the chain shown (N, C = ends). Primed or numbered codes have the meaning given here. [ ]: non-standard residue; d: D form. The star is where a group is joined. Ttds″ = 1,13-diamino-4,7,10-trioxatridecan-succinamic acid (linker), O=C(CCC(=O)[*:2])NCCCOCCOCCOCCCN[*:1]; Ttds = 1,13-diamino-4,7,10-trioxatridecan-succinamic acid, NCCCOCCOCCOCCCNC(=O)CCC(=O)*; DOTA(In) = O=C1CN2CCN3CCN(CC(=O)*)CCN(CC2)CC(=O)[O][In]([O]1)[O]C(=O)C3; APAc″ = 4-amino-1-carboxymethylpiperidine, NC1CCN(CC(=O)*)CC1; dE(AGLU) = D-glutamic acid bearing 1-amino-1-deoxy-D-glucitol; Pro(trans-4-NH2) = O=C([C@@H]1C[C@@H](N[*:3])CN1[*:1])[*:2]; DOTA = O=C(O)CN1CCN(CC(=O)O)CCN(CC(=O)*)CCN(CC(=O)O)CC1; 2Lut = 2,6-lutidylidene bridge between two thiols; Trp(5-Cl) = N[C@@H](Cc1c[nH]c2ccc(Cl)cc12)C(=O)O; Pyridine(2,6-diCH2) = c1cc(C[*:1])nc(C[*:2])c1; 2Lut″ = 2,6-lutidylidene linking two thiols; APAc = 4-amino-1-carboxymethylpiperidine; mXylylene = c1cc(C[*:1])cc(C[*:2])c1; LuDOTA = DOTA Lutetium(III) complex; Glutaryl = O=C(CCCC(=O)[*:2])[*:1]; AGLU = 1-amino-1-deoxy-D-glucitol; Cya = N[C@@H](CS(=O)(=O)O)C(=O)O; Hyp = O=C(O)[C@@H]1C[C@@H](O)CN1; Cysteamide = C(CS[*:3])N[*:1]; dGlu(AGLU) = not defined here; Suc = O=C(CCC(=O)[*:2])[*:1]; hSer = N[C@@H](CCO)C(=O)O; Api = NC1(C(=O)O)CCNCC1; Thp = NC1(C(=O)O)CCOCC1; Dap = NC[C@H](N)C(=O)O; Aib = CC(C)(N)C(=O)O Some results are limits rather than exact numbers.

The first test addresses biotinylated extracellular domain of the human GIP receptor (bioGIPR) (human) (UniProt P48546). The test is described as follows: SPR single cycle kinetics, bioGIPR captured on chip; category A: pKD >9.0.
The molecule {AGLU-Glutaryl-APAc}-DW[Trp(5-Cl)][Hyp]E[dL]C[Api](DOTA)LIC-{APAc-dE(AGLU)-NH2} (linker 7-11 via Pyridine(2,6-diCH2)) [AGLU-Glutar-APAc-Asp-Trp-5Clw-Hyp-Glu-leu-[Cys(2Lut)-Apc(DOTA)-Leu-Ile-Cys]-APAc-glu(AGLU)-NH2] registered a pKD of more than 9 pkd.
Still for that read-out and setting: then B1, with more than 9 pkd; and Ac-DW[Trp(5-Cl)][Pro(trans-4-NH2)](DOTA)E[dL]C[Thp]LIC-NH2 (linker 7-11 via 2Lut″) [Ac-Asp-Trp-5Clw-Tap(DOTA)-Glu-leu-[Cys(2Lut)-Thp-Leu-Ile-Cys]-NH2], with more than 9 pkd; and B2, with more than 9 pkd.
With Suc-W[Trp(5-Cl)][Hyp]E[dL]C[Api]LIC-{APAc-Lys(DOTA)-NH2} (linker 6-10 via 2Lut) [HO-Succinyl-Trp-5Clw-Hyp-Glu-leu-[Cys(2Lut)-Apc-Leu-Ile-Cys]-APAc-Lys(DOTA)-NH2], the pKD is more than 9 pkd.
On to Suc-W[Trp(5-Cl)][Hyp]E[dL]C[Api](DOTA(In))LI[Cysteamide] (linker 6-10 via 2Lut; also: In complex of DOTA) [HO-Succinyl-Trp-5Clw-Hyp-Glu-leu-[Cys(2Lut)-Apc(InDOTA)-Leu-Ile-AET]], for which the pKD is more than 9 pkd.
In the case of {DOTA(In)-APAc″}-DW[Trp(5-Cl)][Hyp]E[dL]C[Thp]LI[Cysteamide] (linker 7-11 via 2Lut; also: DOTA as indium complex (InDOTA)) [InDOTA-APAc-Asp-Trp-5Clw-Hyp-Glu-leu-[Cys(2Lut)-Thp-Leu-Ile-AET]], the pKD was more than 9 pkd.
On the same count and under the same terms, with B3 the figure was more than 9 pkd.
Molecule {LuDOTA-Ttds}-DW[Trp(5-Cl)]PE[dL]C[Aib]LI[Cysteamide] (linker 7-11 via mXylylene) [LuDOTA-Ttds-Asp-Trp-5Clw-Pro-Glu-leu-[Cys(3MeBn)-Aib-Leu-Ile-AET]] showed a pKD of more than 9 pkd.
As to {AGLU-Glutaryl-APAc}-DW[Trp(5-Cl)][Pro(trans-4-NH2)]E[dL]C[Api]LIC-{APAc-dE(AGLU)-NH2} (linker 7-11 via Pyridine(2,6-diCH2); not fully specified (residue 8)), the pKD is more than 9 pkd.
Same read-out and setting: with B4 the figure was more than 9 pkd; with {DOTA-Ttds}-DW[Trp(5-Cl)][Pro(trans-4-NH2)]E[dL][Dap][Api]LI[Cysteamide] (linker 7-11 via Pyridine(2,6-diCH2)) [DOTA-Ttds-Asp-Trp-5Clw-Tap-Glu-leu-[Dap(2Lut)-Apc-Leu-Ile-AET]], more than 9 pkd.

The target of another test is human Gastric Inhibitory Peptide Receptor (human) (UniProt P48546). The test is described as follows: FACS competition with GIP-057 on CHO-K1-hGIPR cells; pIC50 category A: >8.0.
Chain of human Gastric Inhibitory Peptide Receptor (human) (P48546 22-466 limits assumed): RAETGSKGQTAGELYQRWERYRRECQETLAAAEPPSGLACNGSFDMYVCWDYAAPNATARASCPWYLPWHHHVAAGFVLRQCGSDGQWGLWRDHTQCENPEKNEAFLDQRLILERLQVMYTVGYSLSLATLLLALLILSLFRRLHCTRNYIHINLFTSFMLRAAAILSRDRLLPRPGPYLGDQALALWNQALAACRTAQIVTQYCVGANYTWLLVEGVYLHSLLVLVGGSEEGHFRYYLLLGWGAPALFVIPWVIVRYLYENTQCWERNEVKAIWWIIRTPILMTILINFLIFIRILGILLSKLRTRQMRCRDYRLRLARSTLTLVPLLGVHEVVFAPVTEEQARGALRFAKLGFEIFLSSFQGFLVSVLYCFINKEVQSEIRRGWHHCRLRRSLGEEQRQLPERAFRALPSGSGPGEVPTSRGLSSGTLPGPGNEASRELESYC
Regarding {AGLU-Glutaryl-APAc}-DW[Trp(5-Cl)][Hyp]E[dL]C[Api](DOTA)LIC-{APAc-dE(AGLU)-NH2} (linker 7-11 via Pyridine(2,6-diCH2)) [AGLU-Glutar-APAc-Asp-Trp-5Clw-Hyp-Glu-leu-[Cys(2Lut)-Apc(DOTA)-Leu-Ile-Cys]-APAc-glu(AGLU)-NH2], the pIC50 was more than 8 pic50.
On the same count and under the same terms, with B1 the figure was more than 8 pic50; with Ac-DW[Trp(5-Cl)][Pro(trans-4-NH2)](DOTA)E[dL]C[Thp]LIC-NH2 (linker 7-11 via 2Lut″) [Ac-Asp-Trp-5Clw-Tap(DOTA)-Glu-leu-[Cys(2Lut)-Thp-Leu-Ile-Cys]-NH2], more than 8 pic50.
On the same count and under the same terms, then B2, with more than 8 pic50.
On the same count and under the same terms, with Suc-W[Trp(5-Cl)][Hyp]E[dL]C[Api]LIC-{APAc-Lys(DOTA)-NH2} (linker 6-10 via 2Lut) [HO-Succinyl-Trp-5Clw-Hyp-Glu-leu-[Cys(2Lut)-Apc-Leu-Ile-Cys]-APAc-Lys(DOTA)-NH2] the figure was more than 8 pic50; with Suc-W[Trp(5-Cl)][Hyp]E[dL]C[Api](DOTA(In))LI[Cysteamide] (linker 6-10 via 2Lut; also: In complex of DOTA) [HO-Succinyl-Trp-5Clw-Hyp-Glu-leu-[Cys(2Lut)-Apc(InDOTA)-Leu-Ile-AET]], more than 8 pic50.
Consider {DOTA(In)-APAc″}-DW[Trp(5-Cl)][Hyp]E[dL]C[Thp]LI[Cysteamide] (linker 7-11 via 2Lut; also: DOTA as indium complex (InDOTA)) [InDOTA-APAc-Asp-Trp-5Clw-Hyp-Glu-leu-[Cys(2Lut)-Thp-Leu-Ile-AET]], for which the pIC50 is more than 8 pic50.
Same read-out and setting: then B3, with more than 8 pic50; and {LuDOTA-Ttds}-DW[Trp(5-Cl)]PE[dL]C[Aib]LI[Cysteamide] (linker 7-11 via mXylylene) [LuDOTA-Ttds-Asp-Trp-5Clw-Pro-Glu-leu-[Cys(3MeBn)-Aib-Leu-Ile-AET]], with more than 8 pic50; and {AGLU-Glutaryl-APAc}-DW[Trp(5-Cl)][Pro(trans-4-NH2)]E[dL]C[Api]LIC-{APAc-dE(AGLU)-NH2} (linker 7-11 via Pyridine(2,6-diCH2); not fully specified (residue 8)), with more than 8 pic50.
The same measure, in the same setting: with B4 the figure was more than 8 pic50; with {DOTA-Ttds}-DW[Trp(5-Cl)][Pro(trans-4-NH2)]E[dL][Dap][Api]LI[Cysteamide] (linker 7-11 via Pyridine(2,6-diCH2)) [DOTA-Ttds-Asp-Trp-5Clw-Tap-Glu-leu-[Dap(2Lut)-Apc-Leu-Ile-AET]], more than 8 pic50.

The target in the next test is biotinylated extracellular domain of the human GIP receptor (bioGIPR) (human) (UniProt P48546). The test is described as follows: SPR single cycle kinetics, bioGIPR captured on chip; category A: t1/2 >15 min.
Chain of biotinylated extracellular domain of the human GIP receptor (bioGIPR) (human) (P48546 24-138 limits assumed): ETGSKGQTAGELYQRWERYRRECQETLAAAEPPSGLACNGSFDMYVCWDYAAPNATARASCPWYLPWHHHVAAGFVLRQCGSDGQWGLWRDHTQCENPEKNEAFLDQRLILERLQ
In turn, {AGLU-Glutaryl-APAc}-DW[Trp(5-Cl)][Hyp]E[dL]C[Api](DOTA)LIC-{APAc-dE(AGLU)-NH2} (linker 7-11 via Pyridine(2,6-diCH2)) [AGLU-Glutar-APAc-Asp-Trp-5Clw-Hyp-Glu-leu-[Cys(2Lut)-Apc(DOTA)-Leu-Ile-Cys]-APAc-glu(AGLU)-NH2] had a t1/2 of more than 15 min.
The molecule B1 yielded a t1/2 of more than 15 min.
In turn, Ac-DW[Trp(5-Cl)][Pro(trans-4-NH2)](DOTA)E[dL]C[Thp]LIC-NH2 (linker 7-11 via 2Lut″) [Ac-Asp-Trp-5Clw-Tap(DOTA)-Glu-leu-[Cys(2Lut)-Thp-Leu-Ile-Cys]-NH2] gave a t1/2 of more than 15 min.
With B2, the t1/2 is more than 15 min.
In turn, Suc-W[Trp(5-Cl)][Hyp]E[dL]C[Api]LIC-{APAc-Lys(DOTA)-NH2} (linker 6-10 via 2Lut) [HO-Succinyl-Trp-5Clw-Hyp-Glu-leu-[Cys(2Lut)-Apc-Leu-Ile-Cys]-APAc-Lys(DOTA)-NH2] showed a t1/2 of more than 15 min.
Same read-out and setting: with Suc-W[Trp(5-Cl)][Hyp]E[dL]C[Api](DOTA(In))LI[Cysteamide] (linker 6-10 via 2Lut; also: In complex of DOTA) [HO-Succinyl-Trp-5Clw-Hyp-Glu-leu-[Cys(2Lut)-Apc(InDOTA)-Leu-Ile-AET]] the figure was more than 15 min.
The same measure, in the same setting: then {DOTA(In)-APAc″}-DW[Trp(5-Cl)][Hyp]E[dL]C[Thp]LI[Cysteamide] (linker 7-11 via 2Lut; also: DOTA as indium complex (InDOTA)) [InDOTA-APAc-Asp-Trp-5Clw-Hyp-Glu-leu-[Cys(2Lut)-Thp-Leu-Ile-AET]], with more than 15 min; and B3, with more than 15 min; and {LuDOTA-Ttds}-DW[Trp(5-Cl)]PE[dL]C[Aib]LI[Cysteamide] (linker 7-11 via mXylylene) [LuDOTA-Ttds-Asp-Trp-5Clw-Pro-Glu-leu-[Cys(3MeBn)-Aib-Leu-Ile-AET]], with more than 15 min.
The molecule {AGLU-Glutaryl-APAc}-DW[Trp(5-Cl)][Pro(trans-4-NH2)]E[dL]C[Api]LIC-{APAc-dE(AGLU)-NH2} (linker 7-11 via Pyridine(2,6-diCH2); not fully specified (residue 8)) registered a t1/2 of more than 15 min.
B4 gave a t1/2 of more than 15 min.
On the same count and under the same terms, then {DOTA-Ttds}-DW[Trp(5-Cl)][Pro(trans-4-NH2)]E[dL][Dap][Api]LI[Cysteamide] (linker 7-11 via Pyridine(2,6-diCH2)) [DOTA-Ttds-Asp-Trp-5Clw-Tap-Glu-leu-[Dap(2Lut)-Apc-Leu-Ile-AET]], with more than 15 min.

Values taken from patent US20250296971A1, “GASTRIC INHIBITORY PEPTIDE RECEPTOR LIGANDS” (priority 2021, published 2025).
